From PMC2843729

Target: mouse CNPase catalytic domain containing the C-terminal tail (construct 6-2) (mouse)
Experiment: SEC; HiLoad 16/60 Superdex 200, after Ni-TED purification and TEV cleavage; dimer to monomers

## mouse CNPase catalytic domain containing the C-terminal tail (construct 6-2) (domain or fragment)
  stoichiometry N: 2
